The subject of test [1] is EphA2. Put plainly: EphA activation and ERK1/2 in primary keratinocytes. Format: cell-based, mouse. How it is done: (§1) FIGS. 43(A-C) illustrate EphA2 kinase is required for ephrin-A1-induced inhibition of ERK1/2 MAP kinase and growth suppression in primary keratinocytes. A) EphA kinase activation by ephrin-A1 in EphA2^+/+ and EphA2^+/− but not EphA2^−/− keratinocytes. Keratinocytes were isolated from newborn (P1) mice and cultured on matrigel-coated culture plates. They were stimulated with 1.0 μg/ml of ephrin-A1-Fc for 10 min. The unstimulated cells were used as control. EphA receptors including EphA2 were precipitated from the cell lysates using ephrin-A1-Fc, and were subjected to immunoblot analysis with rabbit polyclonal anti-phospho-EphA/B antibody. Membrane was stripped and blotted again for total EphA2. B) Ephrin-A1 stimulation leads to inactivation of ERK1/2 MAPK in EphA2^+/+ and EphA2^+/− but not EphA2^−/− keratinocytes. Total cell lysates were analyzed by immunoblot with the indicated antibodies. The band densities from p-ERK blot were normalized to the corresponding total ERK1 blot. The ratios of p-ERK between ephrin-A1-treated and untreated were shown in the lower panel. C). Ephrin-A1 stimulation inhibits clonal growth of EphA2^+/+ and EphA2^+/− but not EphA2^−/− keratinocytes. Primary keratinocytes were plated on 6-well plates coated with matrigel at 5,000 cells/well, and allowed to grow for 12 days in the presence of Fc (0.5 μg/ml) or ephrin-A1-Fc (1.0 μg/ml).
(§2) To determine cellular mechanisms underlying the increased susceptibility to skin tumorigenesis, primary keratinocytes were isolated and cultured from epidermis of neonatal (P1) mice. They were stimulated with ephrin-A1 fused to the heavy chain of human IgG1 (ephrin-A1-Fc). EphA kinases including EphA2 were precipitated with excess ephrin-A1-Fc, and blotted with antibody raised against phosphorylated dityrosine peptide that is highly conserved in the juxtamembrane region of all Eph kinases. Phosphorylation of this region has been correlated with Eph receptor activation.
(§3) Primary keratinocytes were isolated from neonatal mouse skin as described previously (Caldelari et al., 2000). Briefly, the entire P1 mouse skin was dissected and incubated with 5 U/ml dispase II (Boehringer Mannheim) overnight at 4° C. Epidermal layer was separated from dermal layer using forceps, minced and digested with 0.25% trypsin/0.05 mMEDTA. After neutralizing trypsin by washing with serum-containing medium, cells were filtered through sterile gauze pads, spun down and resuspended in serum-free keratinocytes culture medium (Gibco) containing pituitary extract, 5 ng/ml EGF, 100 U/ml penicillin, 0.1 mg/ml streptomycin, and 0.25 μg/ml amphotericin, and plated on 6-well plates precoated with 50 μg/ml matrigel. Cell stimulation with ephrin-A1-Fc, immunoprecipitation, and immunoblot were carried as described preciously (Miao et al., 2003; Miao et al., 2005).

Test [2] addresses T1, EphA2 (Mus musculus, UniProt Q03145).
T1 construct: endogenous in cells; host or cells: primary keratinocytes from newborn (P1) mouse epidermis
The description is as above. Format: cell-based. On the procedure:
as §1, §2, §3

Another test deals with GFP-PC-3 cells. Put plainly: PC3 xenograft growth in nude mice. Type of test: in vivo. More on the design: s.c. tumor growth: dose or concentration left out as unconfirmed. The text has this: Frozen sections were stained with biotinylated rabbit anti-human Fc, and HRP-conjugated streptoavidin.

T1 sequence (Q03145 26-977): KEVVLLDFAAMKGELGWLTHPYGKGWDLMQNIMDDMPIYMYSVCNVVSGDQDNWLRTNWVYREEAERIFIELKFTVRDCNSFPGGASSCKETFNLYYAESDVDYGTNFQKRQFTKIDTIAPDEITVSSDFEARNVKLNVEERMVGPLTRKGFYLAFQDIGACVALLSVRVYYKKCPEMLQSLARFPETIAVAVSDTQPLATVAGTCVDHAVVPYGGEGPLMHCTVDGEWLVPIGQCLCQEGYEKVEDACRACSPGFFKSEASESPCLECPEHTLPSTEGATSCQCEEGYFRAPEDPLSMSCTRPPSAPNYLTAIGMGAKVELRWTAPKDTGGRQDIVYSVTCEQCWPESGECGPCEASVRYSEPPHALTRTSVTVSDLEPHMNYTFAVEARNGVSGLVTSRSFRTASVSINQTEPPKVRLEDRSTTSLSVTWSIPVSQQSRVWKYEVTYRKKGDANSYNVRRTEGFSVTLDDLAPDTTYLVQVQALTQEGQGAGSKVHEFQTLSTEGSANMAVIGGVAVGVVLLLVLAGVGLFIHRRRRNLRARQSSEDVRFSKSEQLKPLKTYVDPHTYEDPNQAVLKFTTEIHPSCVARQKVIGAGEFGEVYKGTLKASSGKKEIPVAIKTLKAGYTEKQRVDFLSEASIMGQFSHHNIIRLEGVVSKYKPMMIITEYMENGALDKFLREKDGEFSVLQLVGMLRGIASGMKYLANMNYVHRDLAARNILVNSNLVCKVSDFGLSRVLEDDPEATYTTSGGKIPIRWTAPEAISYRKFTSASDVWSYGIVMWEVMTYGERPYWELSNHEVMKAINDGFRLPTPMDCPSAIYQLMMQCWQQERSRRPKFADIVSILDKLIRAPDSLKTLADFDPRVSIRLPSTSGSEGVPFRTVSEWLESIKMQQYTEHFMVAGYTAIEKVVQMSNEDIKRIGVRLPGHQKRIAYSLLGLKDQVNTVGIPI

B1: ephrin-A1-Fc: ephrin-A1 dimerized by fusion to the heavy chain of human IgG1 (protein)
chain: DRHTVFWNSSNPKFRNEDYTIHVQLNDYVDIICPHYEDHSVADAAMEQYILYLVEHEEYQLCQPQSKDQVRWQCNRPSAKHGPEKLSEKFQRFTPFTLGKEFKEGHSYYYISKPIHQHEDRCLRLKVTVSGKITHSPQAHDNPQEKRLAADDPEVRVLHSIGHS
modifications: left off: a dimerising Fc or GST
notes: ephrin-A1 dimerized by fusion to the heavy chain of human IgG1
Consider B1, for which the p-EphA/B signal result in the test on EphA2 [1] (EphA2-null keratinocytes) is given as “undetectable”. The results for the ERK1/2 activities entry in the test on EphA2 [1] (EphA2 homozygous deletion), with EphA2 [2] (heterozygous keratinocytes) and in the test with EphA2 [2] (wild type keratinocytes) were “completely abolished the inhibitory effects”, “intermediate response” and “significantly attenuated”, respectively. The EphA2 activation entry in the test with EphA2 [2] (wild type and heterozygous keratinocytes) is reported as “readily activated”. Besides, the targeting to tumors result in the test on GFP-PC-3 cells (frozen sections stained with anti-human Fc) is recorded as “target to GFP-PC-3 tumors”. Moreover, in the test with GFP-PC-3 cells (i.p.), the “tumor growth after three weeks of treatment” value is “lack of effects after three weeks of treatment”. In the test on GFP-PC-3 cells (i.p., vs human IgG), the s.c. tumor growth entry is on record as “inhibited s.c. tumor growth”.

(Values after patent US10434074B2, “Peptide and small molecule agonists of EPHA and uses thereof” (CASE WESTERN RESERVE UNIVERSITY, priority 2004, dated 2019).)
